The target in this assay is cobalamin binding domain of CarH from Thermus thermophilus (Thermus thermophilus).

A value given as a limit tells only on which side of the number the result lay.

Turning to “cobalamin binding domain of CarH from Thermus thermophilus (domain or fragment)”, the aggregation ratio (area of bacteria in aggregates/total area occupied by all bacteria) of E. coli MG1655 displaying CarH (CarH‐eCPX), with AdoB12Cy5, in the dark worked out at 50%; the aggregation ratio of CarH‐displaying E. coli with AdoB12Cy5 under green or red light (aggregates not separated by far‐red light) was less than 20%; the aggregation ratio of CarH‐displaying E. coli with AdoB12Cy7.5 under green, red or far‐red light was less than 20%; the aggregation ratio of CarH‐displaying E. coli with AdoB12 under green light (aggregates stable under red and far‐red light) was less than 20%. In addition, the aggregation ratio of E. coli MG1655 displaying CarH (CarH‐eCPX), with AdoB12, in the dark was 50% and the aggregation ratio of E. coli MG1655 displaying CarH (CarH‐eCPX), with AdoB12Cy7.5, in the dark came to 50%.

(Values after publication PMC11673460.)
